pKd: −log10 of the molar value.
How the values were obtained:
4T1 breast cancer cells = experiment: 4T1 breast cancer model, ADG106 with docetaxel; type: in vivo, BALB/c mice; conditions: 5 mg/kg; ADG106 i.p. twice a week 4 doses, Docetaxel i.v. once a week 3 doses
Source text: Tumor growth was monitored twice weekly and is reported as mean tumor volume ±SEM over time.

Lewis lung cancer cells = experiment: Lewis lung cancer model, ADG106 with cisplatin; type: in vivo, C57BL/6 mice; conditions: 5 mg/kg i.p.
Source text: C57BL/6 mice (n=8 per group, female, 6-8 weeks old) were transplanted subcutaneously with 5×10^5 Lewis lung cancer cells. […] Tumor growth was monitored twice weekly and reported as mean tumor volume ±SEM over time.

LLC-CD20 cells = experiment: LLC-CD20 lung cancer model, ADG106 with rituximab; type: in vivo, C57BL/6 mice; conditions: 10 mg/kg i.p. twice a week for 3 weeks
Source text: C57BL/6 mice (n=6 per group, female, 6-8 weeks old) were transplanted subcutaneously with 5×10^5 LLC-CD20 cells, a Lewis lung cancer cell line expressing CD20. […] Tumor growth was monitored twice weekly and reported as mean tumor volume ±SEM over time.

CD137 [1] = target: T1, CD137 (Homo sapiens, UniProt Q07011); experiment: Binding affinity (KD) by surface plasmon resonance (SPR); conditions: read-out: binding affinity (KD)
T1 sequence (Q07011 24-255): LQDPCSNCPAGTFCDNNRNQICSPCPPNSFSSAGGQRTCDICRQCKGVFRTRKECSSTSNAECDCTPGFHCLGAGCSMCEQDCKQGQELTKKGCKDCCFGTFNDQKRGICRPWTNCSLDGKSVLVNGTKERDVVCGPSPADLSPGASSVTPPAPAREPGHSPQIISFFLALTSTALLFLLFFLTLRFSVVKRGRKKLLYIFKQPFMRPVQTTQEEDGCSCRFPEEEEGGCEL

CD137 [2] = target: T1, CD137; experiment: Cellular NFκB reporter gene assay (CD137-expressing NFκB-Luc Jurkat reporter cells); type: cell-based; set-up: expressed in transfected cells; host or cells: NFκB-Luc Jurkat reporter cells (with or without co-cultured CHO-K1 cells expressing human FcγRIIb)
Procedure: The CD137-expressing NFκB-Luc Jurkat reporter cells were stimulated with the anti-CD137 antibodies in the absence (left panel) or presence (right panel) of co-cultured CHO-K1 cell expressing human FcγRIIb. Luciferase activity was measured by bioluminescence assay.

CD137 [3] = target: T1, CD137; experiment: Receptor occupancy calculated from drug plasma concentration and KD; conditions: 0.1 mg/kg, MTD for Urelumab

Compound: CC(=O)O[C@@]12CO[C@@H]1C[C@H](O)[C@@]1(C)C(=O)[C@H](O)C3=C(C)[C@@H](OC(=O)[C@H](O)[C@@H](NC(=O)OC(C)(C)C)c4ccccc4)C[C@@](O)([C@@H](OC(=O)c4ccccc4)[C@H]21)C3(C)C [Docetaxel, docetaxel, reference compound]
- anti-tumor activity, mono-therapy (4T1 breast cancer cells): marginal anti-tumor activity

Compound: N.N.[Cl][Pt][Cl] [cisplatin, reference compound]
- anti-tumor activity, monotherapy (Lewis lung cancer cells): showed anti-tumor activity

Compound: Rituximab: anti-CD20 antibody [reference compound]
- tumor growth, single agent (LLC-CD20 cells): only weakly inhibited tumor growth

Compound: Urelumab: clinical reference anti-CD137 mAb [reference compound]
- pKd (CD137 [1]): 8.02
- human CD137 agonism without crosslinking (CD137 [2]; no crosslinking): function as a human CD137 agonist without crosslinking
- human CD137 agonism following crosslinking (CD137 [2]; with crosslinking): function as agonists
- Calculated Receptor Occupancy (CD137 [3]): 64%

— patent US20230133118A1, “COMPOSITIONS AND METHODS FOR TREATING CANCER” (Adagene AG, priority 2020, published 2023)
